According to patent US20190169637A1:
Blank lines part the entries; values can stand above or below the substance they belong to.

Tests used:
CD19 = CD19 (UniProt P15391); assay: cell-based or functional assay
[1] = system: Sleeping Beauty transposase SB100X (hyperactive) (synthetic construct (reconstructed Tc1-like fish transposon)); assay: cell_activity; conditions: day 14, CD8+ T cells, n=7

Sequence of UniProt P15391 (P15391 20-556 limits assumed): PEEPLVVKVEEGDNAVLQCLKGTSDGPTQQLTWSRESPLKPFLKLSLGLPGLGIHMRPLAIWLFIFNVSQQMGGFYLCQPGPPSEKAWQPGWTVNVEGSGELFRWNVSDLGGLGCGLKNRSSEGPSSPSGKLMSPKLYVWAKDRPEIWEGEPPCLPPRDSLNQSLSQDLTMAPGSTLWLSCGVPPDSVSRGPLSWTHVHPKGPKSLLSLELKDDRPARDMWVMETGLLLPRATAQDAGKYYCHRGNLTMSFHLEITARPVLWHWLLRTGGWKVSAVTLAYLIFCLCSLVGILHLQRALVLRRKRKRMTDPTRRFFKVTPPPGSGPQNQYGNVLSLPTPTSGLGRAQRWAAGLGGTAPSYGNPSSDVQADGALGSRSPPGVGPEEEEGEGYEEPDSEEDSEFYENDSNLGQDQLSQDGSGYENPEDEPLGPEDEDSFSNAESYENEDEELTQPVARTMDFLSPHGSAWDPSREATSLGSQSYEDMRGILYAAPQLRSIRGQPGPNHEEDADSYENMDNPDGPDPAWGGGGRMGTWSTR

proliferation by CFSE dilution (cell divisions in 72 hours) (CD19): > 3
Substance: CD19-CAR (FMC63 targeting domain, IgG4-Fc Hinge spacer, CD3zeta and 4-1BB costimulation) (from UniProt P01861 99-110; Q07011 214-255; P20963 52-163)

Substance: CD19-CAR_EGFRt transposon in pT2/HB minicircle
activity (% EGFRt+ cells) ([1]; SB100X from minicircle): 49.8

Substance: CD19-CAR_EGFRt transposon in pT2/HB plasmid
activity (% EGFRt+ cells) ([1]; SB100X from plasmid): 12.8
